# Molecular target: mouse CXCL14 (R&D Systems) (mouse) (UniProt Q9WUQ5)
# Assay: cell-based or functional assay
# Chain of UniProt Q9WUQ5 (Q9WUQ5 23-99): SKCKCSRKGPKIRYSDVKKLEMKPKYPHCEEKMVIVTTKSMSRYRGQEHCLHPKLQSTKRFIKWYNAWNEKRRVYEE
substance,measurement,value
"rat anti-mouse CXCL14 monoclonal antibody (MAB730, R&D Systems)","inhibition of attraction (chemotaxis) of forskolin-stimulated C2C12 cells by mouse CXCL14, antibody at 10 µg/ml, CXCL14 at 100 nM",54%

# From US20110020347A1
